Measurements published in patent US20190233493A1 (Sanofi, published 2019).
Values belong to the binder of their own block, whether it stands above or below them. *1 amine or outer side, *2 acyl side, *3 side chain or, on linkers, in order; H or OH if unused. Primed or numbered codes have the meaning given here. Side-chain parts run from the residue outwards. [ ]: non-standard residue; d: D form. The star is where a group is joined. PEG12 = NCCOCCOCCOCCOCCOCCOCCOCCOCCOCCOCCOCCOCCC(=O)O; γGlu = O=C(O)[C@H](CCC(=O)[*:2])N[*:1]; 1Nal = N[C@@H](Cc1cccc2ccccc12)C(=O)O; Stearoyl = CCCCCCCCCCCCCCCCCC(=O)*; Palmitoyl = CCCCCCCCCCCCCCCC(=O)*; αMeK = C[C@](N)(CCCCN)C(=O)O; Nle = CCCC[C@H](N)C(=O)O; PEG2′ = PEG2 spacer unit; PEG2″ = not defined here; Aib = CC(C)(N)C(=O)O

Biological target: T1, RXFP1 receptor (UniProt Q9HBX9 1-757, limits assumed)
T1 sequence (looked up): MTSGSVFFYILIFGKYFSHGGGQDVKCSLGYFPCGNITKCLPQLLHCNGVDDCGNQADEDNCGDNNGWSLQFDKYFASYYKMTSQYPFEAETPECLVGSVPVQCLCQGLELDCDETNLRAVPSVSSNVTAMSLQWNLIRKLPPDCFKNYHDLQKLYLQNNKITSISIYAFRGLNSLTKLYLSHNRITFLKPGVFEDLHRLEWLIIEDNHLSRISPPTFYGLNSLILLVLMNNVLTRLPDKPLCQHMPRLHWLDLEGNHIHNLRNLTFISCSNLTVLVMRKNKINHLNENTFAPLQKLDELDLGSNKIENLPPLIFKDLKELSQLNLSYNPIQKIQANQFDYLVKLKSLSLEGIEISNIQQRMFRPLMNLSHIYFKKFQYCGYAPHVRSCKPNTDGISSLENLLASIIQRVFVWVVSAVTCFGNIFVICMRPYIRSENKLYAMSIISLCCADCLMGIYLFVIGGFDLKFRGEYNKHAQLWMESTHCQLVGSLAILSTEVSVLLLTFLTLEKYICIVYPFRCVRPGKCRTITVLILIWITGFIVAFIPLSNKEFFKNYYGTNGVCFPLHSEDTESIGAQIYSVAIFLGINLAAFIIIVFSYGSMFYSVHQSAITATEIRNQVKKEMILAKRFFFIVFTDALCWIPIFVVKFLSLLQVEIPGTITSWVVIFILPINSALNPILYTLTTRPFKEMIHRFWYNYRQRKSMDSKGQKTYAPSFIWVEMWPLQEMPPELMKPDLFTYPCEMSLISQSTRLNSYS
Experiment: cell-based or functional assay

EC50 (nM), OVCAR 5 cells (cAMP): 0.12 nM
EMax, OVCAR 5 cells (cAMP): 90%
Binder: Ac-LEGREKVRAK(Ac)I[Aib][Aib]EG[Nle]STWS[Aib]RKK([PEG2″-PEG2″-γGlu-γGlu-γGlu-Stearoyl])-NH2 [peptide of SEQ ID NO: 73]

EC50 (nM), OVCAR 5 cells (cAMP): 0.56 nM
EMax, OVCAR 5 cells (cAMP): 87%
Binder: Ac-LEGREKVR[Aib]QI[Aib][Aib]EG[Nle]STWS[Aib]RKKK([PEG2″-PEG2″-γGlu-γGlu-γGlu-Stearoyl])-NH2 [peptide of SEQ ID NO: 69]

EC50 (nM), OVCAR 5 cells (cAMP): 0.4 nM
EMax, OVCAR 5 cells (cAMP): 75%
Binder: Ac-LEGREKVRAK(Ac)I[Aib][Aib]EG[Nle]ST[1Nal]S[Aib]RKK([PEG2″-PEG2″-PEG2″-γGlu-γGlu-γGlu-Stearoyl])-NH2 [peptide of SEQ ID NO: 79]

EC50 (nM), OVCAR 5 cells (cAMP): 0.63 nM
EMax, OVCAR 5 cells (cAMP): 94%
Binder: Ac-LEGREKVRAQI[Aib][Aib]EGESTWS[Aib]RKKK([PEG2″-PEG2″-γGlu-γGlu-γGlu-Stearoyl])-NH2 [peptide of SEQ ID NO: 68]

EC50 (nM), OVCAR 5 cells (cAMP): 0.09 nM
EMax, OVCAR 5 cells (cAMP): 76%
Binder: Ac-LEGREKVRAK(Ac)I[Aib][Aib]EG[Nle]ST[1Nal]S[Aib]RKK(Ac)K([PEG2′-PEG2′-PEG2′-γGlu-γGlu-γGlu-Stearoyl])-NH2 [peptide of SEQ ID NO: 84]

EC50 (nM), OVCAR 5 cells (cAMP): 0.85 nM
EMax, OVCAR 5 cells (cAMP): 92%
Binder: Ac-LEGREKVRAK(Ac)I[Aib][Aib]EG[Nle]STWS[Aib]RKK([PEG2′-PEG2′-PEG2′-γGlu-γGlu-γGlu-Stearoyl])-NH2 [peptide of SEQ ID NO: 83]

EC50 (nM), OVCAR 5 cells (cAMP): 0.17 nM
EMax, OVCAR 5 cells (cAMP): 93%
Binder: Ac-LEGREKVRAK(Ac)I[Aib][Aib]EG[Nle]STWS[Aib]RK(Ac)KK([PEG2″-PEG2″-γGlu-γGlu-γGlu-Stearoyl])-NH2 [peptide of SEQ ID NO: 72]

EC50 (nM), OVCAR 5 cells (cAMP): 0.52 nM
EMax, OVCAR 5 cells (cAMP): 87%
Binder: Ac-LEGREKVRAQI[Aib][Aib]EG[Nle]STWS[Aib]RKKK([PEG2″-PEG2″-γGlu-γGlu-γGlu-Stearoyl])-NH2 [peptide of SEQ ID NO: 71]

EC50 (nM), OVCAR 5 cells (cAMP): 0.39 nM
EMax, OVCAR 5 cells (cAMP): 89%
Binder: Ac-LEGREKVRAQI[Aib][Aib]EG[Nle]STWS[Aib]RKK([PEG2″-PEG2″-γGlu-γGlu-γGlu-Stearoyl])-NH2 [peptide of SEQ ID NO: 67]

EC50 (nM), OVCAR 5 cells (cAMP): 11.8 nM
EMax, OVCAR 5 cells (cAMP): 95%
B1: peptide of SEQ ID NO: 9 (peptide)
peptide: Ac-LEGREKVRAQI[Aib][Aib]EG[Nle]STWS[Aib]RKK([γGlu-γGlu-γGlu-Stearoyl])-NH2
SMILES: CCCCCCCCCCCCCCCCCC(=O)N[C@@H](CCC(=O)N[C@@H](CCC(=O)N[C@@H](CCC(=O)NCCCC[C@H](NC(=O)[C@H](CCCCN)NC(=O)[C@H](CCCNC(=N)N)NC(=O)C(C)(C)NC(=O)[C@H](CO)NC(=O)[C@H](Cc1c[nH]c2ccccc12)NC(=O)[C@@H](NC(=O)[C@H](CO)NC(=O)[C@H](CCCC)NC(=O)CNC(=O)[C@H](CCC(=O)O)NC(=O)C(C)(C)NC(=O)C(C)(C)NC(=O)[C@@H](NC(=O)[C@H](CCC(N)=O)NC(=O)[C@H](C)NC(=O)[C@H](CCCNC(=N)N)NC(=O)[C@@H](NC(=O)[C@H](CCCCN)NC(=O)[C@H](CCC(=O)O)NC(=O)[C@H](CCCNC(=N)N)NC(=O)CNC(=O)[C@H](CCC(=O)O)NC(=O)[C@H](CC(C)C)NC(C)=O)C(C)C)[C@@H](C)CC)[C@@H](C)O)C(N)=O)C(=O)O)C(=O)O)C(=O)O

EC50 (nM), OVCAR 5 cells (cAMP): 0.57 nM
EMax, OVCAR 5 cells (cAMP): 83%
B2: peptide of SEQ ID NO: 66 (peptide)
peptide: Ac-LEGREKVRAK(Ac)I[Aib][Aib]EG[Nle]STWS[Aib]RKK(Ac)K([PEG12-γGlu-γGlu-γGlu-Palmitoyl])-NH2
SMILES: CCCCCCCCCCCCCCCC(=O)N[C@@H](CCC(=O)N[C@@H](CCC(=O)N[C@@H](CCC(=O)NCCOCCOCCOCCOCCOCCOCCOCCOCCOCCOCCOCCOCCC(=O)NCCCC[C@H](NC(=O)[C@H](CCCCNC(C)=O)NC(=O)[C@H](CCCCN)NC(=O)[C@H](CCCNC(=N)N)NC(=O)C(C)(C)NC(=O)[C@H](CO)NC(=O)[C@H](Cc1c[nH]c2ccccc12)NC(=O)[C@@H](NC(=O)[C@H](CO)NC(=O)[C@H](CCCC)NC(=O)CNC(=O)[C@H](CCC(=O)O)NC(=O)C(C)(C)NC(=O)C(C)(C)NC(=O)[C@@H](NC(=O)[C@H](CCCCNC(C)=O)NC(=O)[C@H](C)NC(=O)[C@H](CCCNC(=N)N)NC(=O)[C@@H](NC(=O)[C@H](CCCCN)NC(=O)[C@H](CCC(=O)O)NC(=O)[C@H](CCCNC(=N)N)NC(=O)CNC(=O)[C@H](CCC(=O)O)NC(=O)[C@H](CC(C)C)NC(C)=O)C(C)C)[C@@H](C)CC)[C@@H](C)O)C(N)=O)C(=O)O)C(=O)O)C(=O)O

EC50 (nM), OVCAR 5 cells (cAMP): 0.02 nM
EMax, OVCAR 5 cells (cAMP): 89%
Binder: Ac-LEGREKVRAK(Ac)I[Aib][Aib]EG[Nle]STWS[αMeK]RKK(Ac)K([PEG2′-PEG2′-PEG2′-γGlu-γGlu-γGlu-γGlu-Stearoyl])-NH2 [peptide of SEQ ID NO: 82]

EC50 (nM), OVCAR 5 cells (cAMP): 0.28 nM
EMax, OVCAR 5 cells (cAMP): 86%
Binder: Ac-LEGREKVRAQI[Aib][Aib]EGQSTWS[Aib]RKKK([PEG2″-PEG2″-γGlu-γGlu-γGlu-Stearoyl])-NH2 [peptide of SEQ ID NO: 70]

EC50 (nM), OVCAR 5 cells (cAMP): 0.8 nM
EMax, OVCAR 5 cells (cAMP): 89%
Binder: Ac-LEGREKVRAQI[Aib][Aib]EG[Nle]STWT[Aib]RKKK([PEG2″-PEG2″-PEG2″-γGlu-γGlu-γGlu-Stearoyl])-NH2 [peptide of SEQ ID NO: 76]

EC50 (nM), OVCAR 5 cells (cAMP): 0.77 nM
EMax, OVCAR 5 cells (cAMP): 75%
Binder: Ac-LEGREKVR[Aib]K(Ac)I[Aib][Aib]EG[Nle]ST[1Nal]S[Aib]RKK(Ac)K([PEG2′-PEG2′-PEG2′-γGlu-γGlu-γGlu-Stearoyl])-NH2 [peptide of SEQ ID NO: 85]

EC50 (nM), OVCAR 5 cells (cAMP): 0.07 nM
EMax, OVCAR 5 cells (cAMP): 85%
Binder: Ac-LEGREKVRAQI[Aib][Aib]EG[Nle]STWS[Aib]RKK([PEG2″-PEG2″-PEG2″-γGlu-γGlu-γGlu-Stearoyl])-NH2 [peptide of SEQ ID NO: 74]

EMax, OVCAR 5 cells (cAMP): 88%
Binder: Ac-LEGREKVRAQI[Aib][Aib]EG[Nle]STWS[Aib]RKKK([PEG2″-PEG2″-PEG2″-γGlu-γGlu-γGlu-Stearoyl])-NH2 [peptide of SEQ ID NO: 75]

EC50 (nM), OVCAR 5 cells (cAMP): 26.7 nM
EMax, OVCAR 5 cells (cAMP): 98%
B3: peptide of SEQ ID NO: 8 (peptide)
peptide: Ac-LEGREKVRAQI[Aib][Aib]EG[Nle]STWS[Aib]RKK([γGlu-γGlu-γGlu-Palmitoyl])-NH2
SMILES: CCCCCCCCCCCCCCCC(=O)N[C@@H](CCC(=O)N[C@@H](CCC(=O)N[C@@H](CCC(=O)NCCCC[C@H](NC(=O)[C@H](CCCCN)NC(=O)[C@H](CCCNC(=N)N)NC(=O)C(C)(C)NC(=O)[C@H](CO)NC(=O)[C@H](Cc1c[nH]c2ccccc12)NC(=O)[C@@H](NC(=O)[C@H](CO)NC(=O)[C@H](CCCC)NC(=O)CNC(=O)[C@H](CCC(=O)O)NC(=O)C(C)(C)NC(=O)C(C)(C)NC(=O)[C@@H](NC(=O)[C@H](CCC(N)=O)NC(=O)[C@H](C)NC(=O)[C@H](CCCNC(=N)N)NC(=O)[C@@H](NC(=O)[C@H](CCCCN)NC(=O)[C@H](CCC(=O)O)NC(=O)[C@H](CCCNC(=N)N)NC(=O)CNC(=O)[C@H](CCC(=O)O)NC(=O)[C@H](CC(C)C)NC(C)=O)C(C)C)[C@@H](C)CC)[C@@H](C)O)C(N)=O)C(=O)O)C(=O)O)C(=O)O

EC50 (nM), OVCAR 5 cells (cAMP): 1.04 nM
EMax, OVCAR 5 cells (cAMP): 73%
Binder: Ac-LEGREKVRAK(Ac)I[Aib][Aib]EG[Nle]STYS[Aib]RKK(Ac)K([PEG2″-PEG2″-PEG2″-γGlu-γGlu-γGlu-Stearoyl])-NH2 [peptide of SEQ ID NO: 78]

EC50 (nM), OVCAR 5 cells (cAMP): 2.94 nM
EMax, OVCAR 5 cells (cAMP): 92%
Binder: Ac-LEGREKVRLQI[Aib][Aib]EG[Nle]STWT[Aib]RKKK([PEG2″-PEG2″-PEG2″-γGlu-γGlu-γGlu-Stearoyl])-NH2 [peptide of SEQ ID NO: 77]

EC50 (nM), OVCAR 5 cells (cAMP): 0.22 nM
EMax, OVCAR 5 cells (cAMP): 84%
Binder: Ac-LEGREKVRAK(Ac)I[Aib][Aib]EG[Nle]STWS[Aib]RKK(Ac)K([PEG2′-PEG2′-PEG2′-γGlu-γGlu-γGlu-Stearoyl])-NH2 [peptide of SEQ ID NO: 81]

EC50 (nM), OVCAR 5 cells (cAMP): 0.73 nM
EMax, OVCAR 5 cells (cAMP): 68%
Binder: Ac-LEGREKVR[Aib]K(Ac)I[Aib][Aib]EG[Nle]ST[1Nal]S[Aib]RKK([PEG2′-PEG2′-PEG2′-γGlu-γGlu-γGlu-Stearoyl])-NH2 [peptide of SEQ ID NO: 80]
